The record followed here is IntAct's records for PubMed 20723758.

B1: Epidermal growth factor receptor (Drosophila melanogaster (Fruit fly)), P04412 (parent)
chain: MLLRRRNGPCPFPLLLLLLAHCICIWPASAARDRYARQNNRQRHQDIDRDRDRDRFLYRSSSAQNRQRGGANFALGLGANGVTIPTSLEDKNKNEFVKGKICIGTKSRLSVPSNKEHHYRNLRDRYTNCTYVDGNLKLTWLPNENLDLSFLDNIREVTGYILISHVDVKKVVFPKLQIIRGRTLFSLSVEEEKYALFVTYSKMYTLEIPDLRDVLNGQVGFHNNYNLCHMRTIQWSEIVSNGTDAYYNYDFTAPERECPKCHESCTHGCWGEGPKNCQKFSKLTCSPQCAGGRCYGPKPRECCHLFCAGGCTGPTQKDCIACKNFFDEAVSKEECPPMRKYNPTTYVLETNPEGKYAYGATCVKECPGHLLRDNGACVRSCPQDKMDKGGECVPCNGPCPKTCPGVTVLHAGNIDSFRNCTVIDGNIRILDQTFSGFQDVYANYTMGPRYIPLDPERREVFSTVKEITGYLNIEGTHPQFRNLSYFRNLETIHGRQLMESMFAALAIVKSSLYSLEMRNLKQISSGSVVIQHNRDLCYVSNIRWPAIQKEPEQKVWVNENLRADLCEKNGTICSDQCNEDGCWGAGTDQCLTCKNFNFNGTCIADCGYISNAYKFDNRTCKICHPECRTCNGAGADHCQECVHVRDGQHCVSECPKNKYNDRGVCRECHATCDGCTGPKDTIGIGACTTCNLAIINNDATVKRCLLKDDKCPDGYFWEYVHPQEQGSLKPLAGRAVCRKCHPLCELCTNYGYHEQVCSKCTHYKRREQCETECPADHYTDEEQRECFQRHPECNGCTGPGADDCKSCRNFKLFDANETGPYVNSTMFNCTSKCPLEMRHVNYQYTAIGPYCAASPPRSSKITANLDVNMIFIITGAVLVPTICILCVVTYICRQKQKAKKETVKMTMALSGCEDSEPLRPSNIGANLCKLRIVKDAELRKGGVLGMGAFGRVYKGVWVPEGENVKIPVAIKELLKSTGAESSEEFLREAYIMASEEHVNLLKLLAVCMSSQMMLITQLMPLGCLLDYVRNNRDKIGSKALLNWSTQIAKGMSYLEEKRLVHRDLAARNVLVQTPSLVKITDFGLAKLLSSDSNEYKAAGGKMPIKWLALECIRNRVFTSKSDVWAFGVTIWELLTFGQRPHENIPAKDIPDLIEVGLKLEQPEICSLDIYCTLLSCWHLDAAMRPTFKQLTTVFAEFARDPGRYLAIPGDKFTRLPAYTSQDEKDLIRKLAPTTDGSEAIAKPDDYLQPKAAPGPSHRTDCTDEMPKLNRYCKDPSNKNSSTGDDERDSSAREVGVGNLRLDLPVDEDDYLMPTCQPGPNNNNNMNNPNQNNMAAVGVAAGYMDLIGVPVSVDNPEYLLNAQTLGVGESPIPTQTIGIPVMGGPGTMEVKVPMPGSEPTSSDHEYYNDTQRELQPLHRNRNTETRV
partner: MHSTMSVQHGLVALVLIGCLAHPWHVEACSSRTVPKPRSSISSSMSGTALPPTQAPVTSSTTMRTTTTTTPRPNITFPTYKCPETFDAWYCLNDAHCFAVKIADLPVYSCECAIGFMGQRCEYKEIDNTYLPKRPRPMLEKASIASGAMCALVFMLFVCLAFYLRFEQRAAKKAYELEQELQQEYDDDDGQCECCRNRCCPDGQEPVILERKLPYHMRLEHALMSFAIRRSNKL

The assay covers variants of B1. The following applies: with spitz_drome spi.
Y341E;N342A;T344D;Y346E;V347A;L348D: the “effect of a mutation on the interaction” value is reported as “decreasing interaction”.
